These results are taken from patent US20260183437A1, “VHH ANTIBODY CONJUGATES WITH HETEROARYL CHELATORS” (ABDERA THERAPEUTICS INC., priority 2022, published 2026).

What all share (assay): ABC (Antibody Binding Capacity) assay, receptor density
Type in all cases: cell-based

For test [1], the system named is HEK-DLL3. The protocol: (§1) In order to test efficacy of the immunoconjugate binding with respect to target density receptor density was measured on target positive cell lines. Target density was measured using the ABC (Antibody Binding Capacity) assay. Cancer cells expressing the target of interest, as well as a negative control cell line, were harvested with cell dissociation buffer, seeded at about 5×10^4 cells per well into 96-well V bottom plate (Sarstedt 82.1583.001). Cells were tested for receptor expression using QuantiBRITE PE beads (BD Cat #340495) and a PE-conjugated anti-hu IgG (Biolegend clone HP6017) following the manufacturers' instructions. In brief, VHH-Fc and isotype control antibodies were prepared at suitable saturating concentrations based on previous experiments. Antibody sample dilutions were incubated with the panel of cell lines on ice for 1 hour. Cells were washed twice with 1% FBS in 1×PBS (FACS buffer), centrifuged at 400 G for 4 min. Cells were then incubated with 4 μg/mL mouse PE-conjugated anti-hu and DAPI (1:1000) for 30 minutes on ice. Cells were washed twice with FACS buffer, centrifuged at 400 G for 4 minutes and resuspended in FACS buffer. Fluorescence intensity on the PE channel was measured on the iQue Screener platform, and data were processed with ForeCyt software. The amount of PE signal generated from the different primary antibody was then fit to a standard curve based off of known PE molecules/Quantibrite bead samples to determine the number of antibody-binding sites per cell. Relative antibody binding sites correlate to the number of antigens or receptors on cell surface.

Test [2] has as its system SHP-77. As to the method:
as §1

The subject of test [3] is H82. As to the method: as §1

B1: Rovalpituzumab: control antibody for DLL3 binding (Creative Biolabs #TAB-216CL) (antibody, chains of the INN, looked up, V domains shown)
VH: QVQLVQSGAEVKKPGASVKVSCKASGYTFTNYGMNWVRQAPGQGLEWMGWINTYTGEPTYADDFKGRVTMTTDTSTSTAYMELRSLRSDDTAVYYCARIGDSSPSDYWGQGTLVTVSS
VL: EIVMTQSPATLSVSPGERATLSCKASQSVSNDVVWYQQKPGQAPRLLIYYASNRYTGIPARFSGSGSGTEFTLTISSLQSEDFAVYYCQQDYTSPWTFGQGTKLEIK
For B1, the “Estimated number of epitopes/cell” value is 1679 epitopes/cell in test [1], 969 epitopes/cell in test [2] and 936 epitopes/cell in test [3].
